{"source": "paper PMC11724247", "key": {"[1]": {"target": "recombinant human FcεRIα (human) (UniProt P12319)", "experiment": "SPR"}, "[2]": {"target": "recombinant cynomolgus FcεRIα (cynomolgus monkey (Macaca fascicularis))", "experiment": "SPR"}}, "data": [{"substance": "recombinant cynomolgus IgE Fc (Cε1-4) (domain or fragment)", "values": [{"measurement": "Kd", "setting": "[1]", "result": 0.00673, "unit": "nM"}, {"measurement": "Kd", "setting": "[2]", "result": 1.4, "unit": "nM"}]}, {"substance": "recombinant human IgE (antibody)", "values": [{"measurement": "Kd", "setting": "[1]", "result": 0.00839, "unit": "nM"}, {"measurement": "Kd", "setting": "[2]", "result": 1, "unit": "nM"}]}]}
